Assays:
[1] = molecular target: T1, recombinant human IL-8, (ser-IL-8)72 (human, UniProt P10145); assay: competitive binding RIP with unlabeled IL-8, Scatchard analysis
[2] = molecular target: T1, recombinant human IL-8, (ser-IL-8)72
Human IL-8 [3] = assay: Human IL-8 mediated neutrophil chemotaxis, 96-well chamber, calcein AM-labeled neutrophils; assay type: cell-based
Method: Human neutrophils were isolated, counted and resuspended at 5×10^6 cells/ml in Hank's balanced salt solution (abbreviated HBSS; without calcium and magnesium) with 0.1% bovine serum albumin. The neutrophils were labeled by adding calcein AM (Molecular Probe, Eugene, Oreg.) at a final concentration of 2.0 μM. Following a 30 minute incubation at 37° C., cells were washed twice with HBSS-BSA and resuspended at 5×10^6 cells/ml.
Chemotaxis experiments were carried out in a Neuro Probe (Cabin John, Md.) 96-well chamber, model MBB96. Experimental samples (buffer only control, IL-8 alone or IL-8 +Fabs) were loaded in a Polyfiltronics 96-well View plate (Neuro Probe Inc.) placed in the lower chamber. […]
The relative number of neutrophils migrating through the filter (Neutrophil migration index) was determined by measuring fluorescence intensity of the filter and the fluorescence intensity of the contents of the lower chamber and adding the two values together. Fluorescence intensity was measured with a CytoFluor 2300 fluorescent plate reader (Millipore Corp. Bedford, Mass.) configured to read a Corning 96-well plate using the 485-20 nm excitation filter and a 530-25 emission filter, with the sensitivity set at 3.

IL-8 [4] = assay: Receptor binding assay: 125I-IL-8 bound to human neutrophils in presence of mAbs; conditions: 1:25 molar ratio of IL-8 to mAb
Method: To assess the ability of these monoclonal antibodies to neutralize IL-8 activity, the amount of ^125 I-IL-8 bound to human neutrophils in the presence of various amounts of culture supernatants and purified monoclonal antibodies was measured. Neutrophils were prepared by using Mono-Poly Resolving Medium (M-PRM) (Flow Lab. Inc., McLean, Va). Briefly fresh, heparinized human blood was loaded onto M-PRM at a ratio of blood to medium, 3.5:3.0, and centrifuged at 300×g for 30 min at room temperature. Neutrophils enriched at the middle layer were collected and washed once in PBS. Such a preparation routinely contained greater than 95% neutrophils according to the Wright's Giemsa staining. The receptor binding assay was done as follows. 50 μl of ^125 I-IL-8 (5 ng/ml) was incubated with 50 μl of unlabeled IL-8 (100 μg/ml) or monoclonal antibodies in PBS containing 0.1% BSA for 30 min at room temperature. The mixture was then incubated with 100 μl of neutrophils (10^7 cells/ml) for 15 min at 37° C. The ^125 I-IL-8 bound was separated from the unbound material by loading mixtures onto 0.4 ml of PBS containing 20% sucrose and 0.1% BSA and by centrifugation at 300×g for 15 min. The supernatant was removed by aspiration and the radioactivity associated with the pellet was counted in a gamma counter.

IL-8 [5] = assay: Neutrophil chemotaxis induced by IL-8, Boyden chamber method; assay type: cell-based, human; conditions: 1:10 ratio of IL-8 to mAb; IL-8 20 nM
Method: The ability of the anti-IL-8 antibodies to block neutrophil chemotaxis induced by IL-8 was tested as follows. Neutrophil chemotaxis induced by IL-8 was determined using a Boyden chamber method (Larsen, et al., Science 243:1464 (1989)). One hundred μl of human neutrophils (10^6 cells/ml) resuspended in RPMI containing 0.1% BSA were placed in the upper chamber and 29 μl of the IL-8 (20 nM) with or without monoclonal antibodies were placed in the lower chamber. Cells were incubated for 1 hr at 37° C. Neutrophils migrated into the lower chamber were stained with Wright's Giemsa stain and counted under the microscope (100×magnification). Approximately 10 different fields per experimental group were examined. Neutralizing monoclonal antibodies 5.12.14 and 4.1.3 blocked almost 70% of the neutrophil chemotactic activity of IL-8 at 1:10 ratio of IL-8 to mAb.

[6] = Isoelectric focusing (IEF) pattern; assay type: physicochemical; conditions: IEF polyacrylamide gel pH 3-9
Method: The isoelectric focusing (IEF) pattern of each mAb was determined by applying purified antibodies on an IEF polyacrylamide gel (pH 3-9, Pharmacia) using the Fast gel system (Pharmacia, Piscataway, N.J.). The IEF gel was pretreated with pharmalyte containing 1% Triton X100 (Sigma, St. Louis, Mo.) for 10 min before loading the samples. The IEF pattern was visualized by silver staining according to the instructions from the manufacturer. All of the monoclonal antibodies had different IEF patterns, confirming that they originated from different clones.

Human IL-8 [7] = assay: IL-8 mediated release of elastase by neutrophils (mAb 5.12.14); assay type: cell-based; conditions: 1:1 ratio of IL-8 to mAb
Method: One of the antibodies, mAb 5.12.14, was further studied to determine whether it could block the IL-8 mediated release of elastase by neutrophils. Briefly, human neutrophils were resuspended in Hanks balanced salt solution (Gibco, Grand Island, N.Y.) containing 1.0% BSA, Fraction V (Sigma, St. Louis, Mo.), 2 mg/ml alpha-D-glucose (Sigma), 4.2 mM sodium bicarbonate (Sigma) and 0.01M HEPES, pH 7.1 (JRH Bioscience, Lenexa, Kans.). A stock of cytochalasin B (Sigma) was prepared (5 mg/ml in dimethylsulfoxide (Sigma) and stored at 2°-8° C. Cytochalasin B was added to the neutrophil preparation to produce a final concentration of 5 μg/ml, and incubated for 15 min at 37° C. Human IL-8 was incubated with mAb 5.12.14 (20 μl), or a negative control antibody, in 1 ml polypropylene tubes (DBM Scientific, San Fernando, Calif.) for 30 min at 37° C. The final assay concentrations of IL-8 were 50 and 500 nM. The monoclonal antibodies were diluted to produce the following ratios (IL-8:Mab): 1:50, 1:10, 1:2, 1:1, and 1:0.25. Cytochalasin B-treated neutrophils were added (100 μl/tube) and incubated for 2 hours at 25° C. The tubes were centrifuged (210×g, 2°-8° C.) for 10 min, and supernatants were transferred to 96 well tissue culture plates (30 μl/well). […] Absorbance was measured at 405 nm (SLT 340 ATTC plate reader, SLT Lab Instruments, Austria).

IL-8 [8] = assay: Radioimmune precipitation test (RIP): capture of soluble 125I-IL-8; assay type: binding, human
Method: The ability of these monoclonal antibodies to capture soluble ^125 I-IL-8 was assessed by a radioimmune precipitation test (RIP). Briefly, tracer ^125 I-IL-8 (4×10^4 cpm) was incubated with various dilutions of the monoclonal anti-IL-8 antibodies in 0.2 ml of PBS containing 0.5% BSA and 0.05% Tween 20 (assay buffer) for 1 hr at room temperature. One hundred microliters of a predetermined concentration of goat anti-mouse Ig antisera (Pel-Freez, Rogers, Ariz.) were added and the mixture was incubated at room temperature for 1 hr. Immune complexes were precipitated by the addition of 0.5 ml of 6% polyethylene glycol (M.W. 8000) kept at 4° C. After centrifugation at 2,000×g for 20 min at 4° C., the supernatant was removed by aspiration and the radioactivity remaining in the pellet was counted in a gamma counter. Percent specific binding was calculated as (precipitated cpm--background cpm)/(total cpm--background cpm).

IL-8 [9] = assay: Competitive binding ELISA (epitopes), biotinylated mAb vs unlabeled mAb; design: species or system human; conditions: ratio of biotinylated mAb to unlabeled mAb 1:100
Method: To assess whether these monoclonal antibodies bound to the same epitopes, a competitive binding ELISA was performed. […] Thus, mAb 4.1.3 and mAb 5.2.3 bind to a different epitope(s) than the epitope recognized by monoclonal antibodies 12.3.9, 4.8 and 5.12.14.

B1: anti-IL-8 monoclonal antibody 5.12.14 (antibody, V domains shown)
VH: EVQLVESGGGLVPPGGSLKLSCAASGFIFSSYGMSWVRQTPGKSLELVATINNNGDSTYYPDSVKGRFTISRDNAKNTLYLQMSSLKSEDTAMFYCARALISSATWFGYWGQGTLVTVSA
VL: DIVMTQSQKFMSTSVGDRVSVTCKASQNVGTNVAWYQQKPGQSPKALIYSSSYRYSGVPDRFTGSGSGTDFTLTISHVQSEDLADYFCQQYNIYPLTFGPGTKLELKR
For B1, the Kd [1] was 0.3 nM and the neutrophil chemotaxis induced by IL-8 (Boyden chamber) [2] was 70%.

B2: 6G.4.25 Fab (antibody)
heavy: EIQLQQSGPELMKPGASVKISCKASGYSFSSHYMHWVKQSHGKSLEWIGYIDPSNGETTYNQKFKGKATLTVDTSSSTANVHLSSLTSDDSAVYFCARGDYRYNGDWFFDVWGAGTTVTVSSASTKGPSVFPLAPSSKSTSGGTAALGCLVKDYFPEPVTVSWNSGALTSGVHTFPAVLQSSGLYSLSSVVTVPSSSLGTQTYICNVNHKPSNTKVDKKVEPKSCDKTHT
light: DIVMTQTPLSLPVSLGDQASISCRSSQSLVHGIGNTYLHWYLQKPGQSPKLLIYKVSNRFSGVPDRFSGSGSGTDFTLRISRVEAEDLGLYFCSQSTHVPLTFGAGTKLELKRAVAAPTVFIFPPSSEQLKSGTASVVCLLNNFYPREAKVQWKVDNALQSGNSQESVTEQDSKDSTYSLSSTLTLSKADYEKHKVYACEVTHQGLSSPVTKSFNRGEC
In the case of B2, the “inhibition of human IL-8 mediated neutrophil chemotaxis” value (Human IL-8 [3]) is reported as “inhibition”.

B3: mAb 5.12.14: murine monoclonal antibody against human IL-8, isotype IgG2a, hybridoma ATCC HB 11553 (antibody, V domains shown)
VH: ASGFIFSSYGMSWVRQTPGKSLELVATINNNGDSTYYPDSVKGRFTISRDNAKNTLYLQMSSLKSEDTAMFYCARALISSATWFGYWGQGTLVTVSAAKTTAPSVYP
VL: KASQNVGTNVAWYQQKPGQSPKALIYSSSYRYSGVPDRFTGSGSGTDFTLTISHVQSEDLADYFCQQYNIYPLTFGPGTKLELKRADAAPPTVSIFPPFE
For B3, the “inhibition of the binding of IL-8 to human neutrophils” value (IL-8 [4]) was “greater than 85%”, the “block of the neutrophil chemotactic activity of IL-8” value (IL-8 [5]) was ~70% and the pI [6] was 6.2-7.4. The “block of release of elastase from neutrophils” value (Human IL-8 [7]) was “effectively block”, the “capture of soluble 125I-IL-8 in the RIP” value (IL-8 [8]) was “very efficiently” and the “% Specific Binding to IL-8” value (IL-8 [8]; RIP, soluble 125I-IL-8) was 98%. For the same molecule, the “inhibition of binding of biotinylated mAb 4.1.3 by unlabeled mAb” value (IL-8 [9]) was “not by mAb 5.12.14” and the “inhibition of binding of biotinylated mAb 5.12.14 by unlabeled mAb” value (IL-8 [9]) was “significantly inhibited”.

B4: 5.12.14 Fab (antibody)
heavy: EVQLVESGGGLVPPGGSLKLSCAASGFIFSSYGMSWVRQTPGKSLELVATINNNGDSTYYPDSVKGRFTISRDNAKNTLYLQMSSLKSEDTAMFYCARALISSATWFGYWGQGTLVTVSAASTKGPSVFPLAPSSKSTSGGTAALGCLVKDYFPEPVTVSWNSGALTSGVHTFPAVLQSSGLYSLSSVVTVPSSSLGTQTYICNVNHKPSNTKVDKKVEPKSCDKTHT
light: KASQNVGTNVAWYQQKPGQSPKALIYSSSYRYSGVPDRFTGSGSGTDFTLTISHVQSEDLADYFCQQYNIYPLTFGPGTKLELKRADAAPPTVSIFPPFE
In the case of B4, the “inhibition of human IL-8 mediated neutrophil chemotaxis” value (Human IL-8 [3]) is reported as “inhibition”.

Source: US5686070A, “Methods for treating bacterial pneumonia” (Genentech, Inc., priority 1995, dated 1997)
